From publication PMC6034166

Molecular target: ethylenediamine-N,N′-disuccinic acid lyase (EDDS lyase) from Chelativorans sp. BNC1 (Chelativorans sp. BNC1)
Experiment: SEC + other: dynamic light scattering

- stoichiometry N: 4
Substance: ethylenediamine-N,N′-disuccinic acid lyase (EDDS lyase) from Chelativorans sp. BNC1 (enzyme)
